# Patent US20250073303A1, “TDP-43 Interference Peptides, Methods, and Uses Thereof” (The University of British Columbia, priority 2022, published 2025)
# What was measured:
# [1] = tested on: mice with LPS plus sciatic nerve axotomy; experiment: LPS (5 mg/kg) plus sciatic nerve axotomy in mice: Fluoro Jade C neurodegeneration staining; type: in vivo, mouse; settings: 20 mg/kg daily i.p., day 7
# Method: FIG. 14: Example peptide D prevents neurodegeneration in ventral horn of spinal cord of mice with LPS plus sciatic nerve axotomy. Mice underwent LPS administration (5 mg/kg, i.p.) plus sciatic nerve axotomy on day 0 and tissues were collected and fixed on day 7 after the surgical procedure. Fluoro Jade (neurodegeneration marker) staining of ventral horn of spinal cord of mice in each indicated treatment group (upper panel) and counterstained with DAPI (lower panel). 20 mg/kg of peptide D was injected daily through i.p. route.
# Neurodegeneration in the lumbar spinal cord of mice 7 days after administration of LPS plus surgery was then evaluated using Fluoro Jade C staining. Animals were divided into two peptide D treatment groups. In one group, peptide D administration started on the day of surgery, and in the other group, peptide D treatment started at 3 days post-surgery when the TDP-43 proteinopathies were at their maximum.
# TDP-43 [2] = target: TDP-43 (Homo sapiens, UniProt Q13148); experiment: Sodium arsenite induced TDP-43 and phosphoTDP-43 accumulation and PARP cleavage in SH-SY5Y cells; type: cell-based; settings: 1 mM sodium arsenite for 3 hours
# TDP-43 (Homo sapiens, UniProt Q13148), sequence (Q13148 whole entry): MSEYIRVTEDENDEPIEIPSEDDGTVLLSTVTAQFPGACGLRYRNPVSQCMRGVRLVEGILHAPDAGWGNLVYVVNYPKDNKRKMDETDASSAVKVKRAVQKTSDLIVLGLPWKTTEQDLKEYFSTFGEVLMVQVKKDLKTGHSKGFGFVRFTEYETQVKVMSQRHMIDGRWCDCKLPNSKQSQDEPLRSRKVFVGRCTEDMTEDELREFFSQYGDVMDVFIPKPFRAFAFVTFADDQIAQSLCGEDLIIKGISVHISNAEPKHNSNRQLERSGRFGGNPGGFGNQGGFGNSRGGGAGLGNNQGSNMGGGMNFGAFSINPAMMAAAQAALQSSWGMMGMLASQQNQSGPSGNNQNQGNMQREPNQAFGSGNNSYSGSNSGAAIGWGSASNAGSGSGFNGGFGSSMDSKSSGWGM
# Method: FIG. 5. Synthetic peptides derived from CK-1δ block TDP-43 phosphorylation, aggregation and partially rescue cell death in different cellular models. […] DAPI (Blue) staining was used to determine nuclear localization. […] Representative immunoblots showing efficient siRNA knockdown of CK-1δ in SH-SY5Y cells. […] (C) Representative immunoblots showing effective blocking of TDP-43 phosphorylation and aggregation by 20 μM peptide mixture in SH-SY5Y cells, but not in HEK293 cells with ethacrynic acid (EA) treatment. (D) Dose response of peptide mixture on blocking TDP-43 aggregation in primary cultured neurons treated with 20 μM ethacrynic acid. Quantification of insoluble TDP-43 expression was shown on the right. […] The significance among the groups was calculated by one-way ANOVA, *p<0.05. The statistical significance of the difference between scramble peptides and peptide mixture groups was calculated by student's t test, #p<0.05. […] Significant differences among the groups was calculated by One-way ANOVA, *p<0.05. Significance between scramble peptides and peptide mixture group was calculated by student's t test, #p<0.05. (G) Peptide D and the peptide mixture reduces TDP-43 phosphorylation and aggregation in SH-SY5Y cells following sodium arsenite treatment. […] TDP-43, phosphoTDP-43, PARP, and actin in the soluble and insoluble fraction were analyzed by western blotting. […]
# TDP-43 [3] = target: TDP-43 (Mus musculus, UniProt Q921F2); experiment: Sodium arsenite induced TDP-43 and phosphoTDP43 aggregates in HL-1 cells; type: cell-based; parameters: endogenous in cells; host or cells: HL-1 cells (cardiomyocytes); settings: 0.05 mM sodium arsenite 16 hours
# TDP-43 (Mus musculus, UniProt Q921F2), sequence (Q921F2 whole entry): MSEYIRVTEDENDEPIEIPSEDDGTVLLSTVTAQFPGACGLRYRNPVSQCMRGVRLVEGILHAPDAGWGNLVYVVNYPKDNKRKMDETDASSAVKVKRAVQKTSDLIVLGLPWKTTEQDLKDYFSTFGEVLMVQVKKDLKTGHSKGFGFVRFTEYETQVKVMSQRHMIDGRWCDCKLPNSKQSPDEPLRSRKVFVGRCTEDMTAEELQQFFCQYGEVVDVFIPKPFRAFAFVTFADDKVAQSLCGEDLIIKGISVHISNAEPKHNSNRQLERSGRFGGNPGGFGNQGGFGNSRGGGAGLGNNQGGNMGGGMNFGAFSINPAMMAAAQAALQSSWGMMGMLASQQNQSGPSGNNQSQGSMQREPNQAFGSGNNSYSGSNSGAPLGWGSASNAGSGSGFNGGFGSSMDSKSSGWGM
# Method: FIG. 12. Example peptide D reduces TDP-43 and phosphoTDP43 aggregates in HL-1 cells following sodium arsenite treatment. Western blot analysis of protein expression (TDP-43, phosphoTDP-43, PARP and actin) in either soluble or insoluble fractions of HL-1 cells with 16 h treatment of sodium arsenite (0.05 mM).
# In order to evaluate the function of example peptide D on alleviation of TDP-43 proteinopathies in cardiomyocytes, 0.05 mM of sodium arsenite was employed to treat HL-1 cells for 16 hours to induce TDP-43 and phosphoTDP43 aggregates. […] 20 μM of peptide D treatment in HL-1 cells under the same treatment conditions reduced insoluble aggregates of TDP-43 and phosphoTDP-43.
# SH-SY5Y cells = experiment: Stress granule (TIA-1) numbers in SH-SY5Y cells with sodium arsenite; type: cell-based, human; settings: 1 mM sodium arsenite 1 hour, TIA-1 staining, vs scramble
substance,measurement,setting,value
"peptide D: candidate peptide from a CK-1δ binding region for TDP-43, truncated HIV-1 TAT domain added at the N-terminal (YGRKKRRQRRRGFSYDYVFDWNMLK)",neurodegeneration in the ventral horn of spinal cord (Fluoro Jade C),[1]; administration started on the day of surgery,less neurodegeneration
same,neurodegeneration in the ventral horn of spinal cord (Fluoro Jade C),[1]; treatment started at 3 days post-surgery,less neurodegeneration
same,PARP cleavage caused by sodium arsenite,TDP-43 [2],less PARP cleavage
same,insoluble TDP-43 and phosphoTDP-43,TDP-43 [2],reducing
same,insoluble aggregates of TDP-43 and phosphoTDP-43,TDP-43 [3]; 20 μM peptide,reduced
same,PARP cleavage product,TDP-43 [3]; treated vs untreated cells,reduced
same,number of stress granules (SGs) induced by sodium arsenite,SH-SY5Y cells,reduced
